Substrate: O=[N+]([O-])c1ccc(OP(=O)(O)O)cc1
Assay: purified protein, by the assay type

B1: TgLaforin (Toxoplasma gondii ME49) (protein)
chain: MRVRFSVTAFVPPNAQLGVVGSAPFLGEWKLEHCVPLMPYSAPHPQGLEPSLWFRDIDLDPASCPNDTNDVHSTAAVSASCSADRRRCDLSRQSPHCFPSARSASPYMVEVSRGDCPFAVELMSTSQHVLSEFSKHNSPVYSAGEQRFRRSLPSSASFSSCTSSGSAVAATKCVWDAAAYRVATRAPEVQAVLESHPLRHCAFEYKFVLWYPPNGEIAVPYVPTTAGEEVPITYAGDSEVLNEESEGGARRRSWRKWLFPPSPSRCPAPPGPSESIVWEGFGPDSNRKFCFDPFDVVVDVNELGDLECLYICRIAHFRDPRAGGVGEYDLTTRFYNSVKSECRMHYSTIFPRFFVGSCPRQLKHIRHLKEELKVTCVVNLQTEQDLCNNYPDPIASSRSAEAVSQLYDGSGLRYVWLPTADMCDSARKIAVANAAFLLLGLFQSGHSVYMHCNAGVGRSVAAACAFLCFAVGLDLRKVNFLICARRPVAYWDEKAMKYGIGDYQAKFGHCRVVGEEAEERQHA
other: pH 5.5, 37 °C
  Km: 1000 ± 50 µM
  Vmax: 1.4 ± 0.02 nmol PO4/min

B2: VHR (Vaccinia H1-related phosphatase) (Homo sapiens) (protein)
chain: MSGSFELSVQDLNDLLSDGSGCYSLPSQPCNEVTPRIYVGNASVAQDIPKLQKLGITHVLNAAEGRSFMHVNTNANFYKDSGITYLGIKANDTQEFNLSAYFERAADFIDQALAQKNGRVLVHCREGYSRSPTLVIAYLMMRQKMDVKSALSIVRQNREIGPNDGFLAQLCQLNDRLAKEGKLKP
pH 5.5, 37.0 °C
  Km: 2500 ± 100 µM

From PMC9254107, “The Toxoplasma glucan phosphatase TgLaforin utilizes a distinct functional mechanism that can be exploited by therapeutic inhibitors” (The Journal of Biological Chemistry, 2022)
